B1: Nuclear autoantigen Sp-100 (Homo sapiens), P23497 (parent)
chain: MAGGGGDLSTRRLNECISPVANEMNHLPAHSHDLQRMFTEDQGVDDRLLYDIVFKHFKRNKVEISNAIKKTFPFLEGLRDRDLITNKMFEDSQDSCRNLVPVQRVVYNVLSELEKTFNLPVLEALFSDVNMQEYPDLIHIYKGFENVIHDKLPLQESEEEEREERSGLQLSLEQGTGENSFRSLTWPPSGSPSHAGTTPPENGLSEHPCETEQINAKRKDTTSDKDDSLGSQQTNEQCAQKAEPTESCEQIAVQVNNGDAGREMPCPLPCDEESPEAELHNHGIQINSCSVRLVDIKKEKPFSNSKVECQAQARTHHNQASDIIVISSEDSEGSTDVDEPLEVFISAPRSEPVINNDNPLESNDEKEGQEATCSRPQIVPEPMDFRKLSTFRESFKKRVIGQDHDFSESSEEEAPAEASSGALRSKHGEKAPMTSRSTSTWRIPSRKRRFSSSDFSDLSNGEELQETCSSSLRRGSGSQPQEPENKKCSCVMCFPKGVPRSQEARTESSQASDMMDTMDVENNSTLEKHSGKRRKKRRHRSKVNGLQRGRKKDRPRKHLTLNNKVQKKRWQQRGRKANTRPLKRRRKRGPRIPKDENINFKQSELPVTCGEVKGTLYKERFKQGTSKKCIQSEDKKWFTPREFEIEGDRGASKNWKLSIRCGGYTLKVLMENKFLPEPPSTRKKRILESHNNTLVDPCEEHKKKNPDASVKFSEFLKKCSETWKTIFAKEKGKFEDMAKADKAHYEREMKTYIPPKGEKKKKFKDPNAPKRPPLAFFLFCSEYRPKIKGEHPGLSIDDVVKKLAGMWNNTAAADKQFYEKKAAKLKEKYKKDIAAYRAKGKPNSAKKRVVKAEKSKKKKEEEEDEEDEQEEENEEDDDK
partner: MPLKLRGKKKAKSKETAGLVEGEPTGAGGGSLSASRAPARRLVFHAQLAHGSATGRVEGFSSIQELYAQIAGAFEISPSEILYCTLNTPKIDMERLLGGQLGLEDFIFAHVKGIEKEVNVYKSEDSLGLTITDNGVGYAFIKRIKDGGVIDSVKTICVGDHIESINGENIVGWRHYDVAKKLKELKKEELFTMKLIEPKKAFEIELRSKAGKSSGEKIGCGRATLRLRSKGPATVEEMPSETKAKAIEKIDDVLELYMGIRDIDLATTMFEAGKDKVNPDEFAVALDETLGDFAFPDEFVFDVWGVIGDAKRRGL
B2: Trichoplein keratin filament-binding protein (Homo sapiens), Q9BT92 (parent)
chain: MALPTLPSYWCSQQRLNQQLARQREQEARLRQQWEQNSRYFRMSDICSSKQAEWSSKTSYQRSMHAYQREKMKEEKRRSLEARREKLRQLMQEEQDLLARELEELRLSMNLQERRIREQHGKLKSAKEEQRKLIAEQLLYEHWKKNNPKLREMELDLHQKHVVNSWEMQKEEKKQQEATAEQENKRYENEYERARREALERMKAEEERRQLEDKLQAEALLQQMEELKLKEVEATKLKKEQENLLKQRWELERLEEERKQMEAFRQKAELGRFLRHQYNAQLSRRTQQIQEELEADRRILQALLEKEDESQRLHLARREQVMADVAWMKQAIEEQLQLERAREAELQMLLREEAKEMWEKREAEWARERSARDRLMSEVLTGRQQQIQEKIEQNRRAQEESLKHREQLIRNLEEVRELARREKEESEKLKSARKQELEAQVAERRLQAWEADQQEEEEEEEARRVEQLSDALLQQEAETMAEQGYRPKPYGHPKIAWN
partner: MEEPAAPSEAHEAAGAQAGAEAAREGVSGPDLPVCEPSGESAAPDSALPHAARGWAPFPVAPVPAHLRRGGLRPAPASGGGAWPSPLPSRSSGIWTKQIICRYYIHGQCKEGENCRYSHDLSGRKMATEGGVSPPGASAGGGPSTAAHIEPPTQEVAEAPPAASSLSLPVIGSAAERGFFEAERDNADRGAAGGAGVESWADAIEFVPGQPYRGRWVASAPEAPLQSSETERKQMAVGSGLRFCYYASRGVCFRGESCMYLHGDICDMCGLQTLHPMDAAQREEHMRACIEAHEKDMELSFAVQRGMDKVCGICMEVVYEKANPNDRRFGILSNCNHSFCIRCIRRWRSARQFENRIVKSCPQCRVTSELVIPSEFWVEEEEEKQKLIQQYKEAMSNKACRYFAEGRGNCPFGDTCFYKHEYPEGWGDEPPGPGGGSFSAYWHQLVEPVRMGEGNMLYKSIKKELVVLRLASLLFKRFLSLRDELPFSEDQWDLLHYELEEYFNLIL
B3: Cyclin-D1-binding protein 1 (Homo sapiens), O95273 (parent)
chain: MASATAPAAAVPTLASPLEQLRHLAEELRLLLPRVRVGEAQETTEEFNREMFWRRLNEAAVTVSREATTLTIVFSQLPLPSPQETQKFCEQVHAAIKAFIAVYYLLPKDQGITLRKLVRGATLDIVDGMAQLMEVLSVTPTQSPENNDLISYNSVWVACQQMPQIPRDNKAAALLMLTKNVDFVKDAHEEMEQAVEECDPYSGLLNDTEENNSDNHNHEDDVLGFPSNQDLYWSEDDQELIIPCLALVRASKACLKKIRMLVAENGKKDQVAQLDDIVDISDEISPSVDDLALSIYPPMCHLTVRINSAKLVSVLKKALEITKASHVTPQPEDSWIPLLINAIDHCMNRIKELTQSELEL
partner: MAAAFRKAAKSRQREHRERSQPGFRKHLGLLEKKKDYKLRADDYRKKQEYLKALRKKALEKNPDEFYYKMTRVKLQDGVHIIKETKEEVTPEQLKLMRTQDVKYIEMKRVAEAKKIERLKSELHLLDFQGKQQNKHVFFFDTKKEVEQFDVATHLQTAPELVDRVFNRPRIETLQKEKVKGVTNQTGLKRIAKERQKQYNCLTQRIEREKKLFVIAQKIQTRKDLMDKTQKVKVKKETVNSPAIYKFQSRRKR
B4: Coiled-coil domain-containing protein 42 (Homo sapiens), Q96M95 (parent)
chain: MSLGIMEEEDLAEYFRLQYGERLLQMLQKLPNVEGASESPSIWLLEKKKETEIMHQTMVQKKKMFQRRMETLNLRWEELGVKEAQLKAHIQKSEQFIQENDQKRIRAMKKANKERELKCQHMQELTKRKQEMVALRLEHQRLSAKLKDYYIFNKYLEKVVENSEFEEIHEVIARYKTLVSMRHDLMQSAQEGQEKIERAKARLARYMEEKDDEILQQNNELARLQMRFDRARSNVIFWESRWAHIQNTAAKKTLLLGTIKMATLNLFQIVSKHLKEVTEVALEDTHKQLDMIQQFIQDRSDIWAEVKKKEQQRVRI
B5: Ligand of Numb protein X 2 (Homo sapiens), Q8N448 (parent)
chain: MGTTSDEMVSVEQTSSSSLNPLCFECGQQHWTRENHLYNYQNEVDDDLVCHICLQPLLQPLDTPCGHTFCYKCLRNFLQEKDFCPLDRKRLHFKLCKKSSILVHKLLDKLLVLCPFSSVCKDVMQRCDLEAHLKNRCPGASHRRVALERRKTSRTQAEIENENGPTLLDPAGTLSPEADCLGTGAVPVERHLTSASLSTWSEEPGLDNPAFEESAGADTTQQPLSLPEGEITTIEIHRSNPYIQLGISIVGGNETPLINIVIQEVYRDGVIARDGRLLAGDQILQVNNYNISNVSHNYARAVLSQPCNTLHLTVLRERRFGNRAHNHSDSNSPREEIFQVALHKRDSGEQLGIKLVRRTDEPGVFILDLLEGGLAAQDGRLSSNDRVLAINGHDLKYGTPELAAQIIQASGERVNLTIARPGKPQPGNTIREAGNHSSSSQHHTPPPYYSRPSSHKDLTQCVTCQEKHITVKKEPHESLGMTVAGGRGSKSGELPIFVTSVPPHGCLARDGRIKRGDVLLNINGIDLTNLSHSEAVAMLKASAASPAVALKALEVQIVEEATQNAEEQPSTFSENEYDASWSPSWVMWLGLPSTLHSCHDIVLRRSYLGSWGFSIVGGYEENHTNQPFFIKTIVLGTPAYYDGRLKCGDMIVAVNGLSTVGMSHSALVPMLKEQRNKVTLTVICWPGSLV
partner: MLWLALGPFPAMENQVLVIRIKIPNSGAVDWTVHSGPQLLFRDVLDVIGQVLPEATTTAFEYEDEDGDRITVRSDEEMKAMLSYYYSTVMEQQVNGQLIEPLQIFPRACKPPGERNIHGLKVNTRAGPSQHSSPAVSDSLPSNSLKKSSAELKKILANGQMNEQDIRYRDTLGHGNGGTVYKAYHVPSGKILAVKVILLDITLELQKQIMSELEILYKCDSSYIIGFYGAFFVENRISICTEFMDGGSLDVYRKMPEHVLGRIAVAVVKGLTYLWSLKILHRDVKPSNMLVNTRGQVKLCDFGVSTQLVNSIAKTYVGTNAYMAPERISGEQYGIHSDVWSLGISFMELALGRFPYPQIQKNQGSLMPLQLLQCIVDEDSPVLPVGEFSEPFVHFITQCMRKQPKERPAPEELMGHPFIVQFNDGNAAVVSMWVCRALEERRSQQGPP
B6: Protein sprouty homolog 1 (Homo sapiens), O43609 (parent)
chain: MDPQNQHGSGSSLVVIQQPSLDSRQRLDYEREIQPTAILSLDQIKAIRGSNEYTEGPSVVKRPAPRTAPRQEKHERTHEIIPINVNNNYEHRHTSHLGHAVLPSNARGPILSRSTSTGSAASSGSNSSASSEQGLLGRSPPTRPVPGHRSERAIRTQPKQLIVDDLKGSLKEDLTQHKFICEQCGKCKCGECTAPRTLPSCLACNRQCLCSAESMVEYGTCMCLVKGIFYHCSNDDEGDSYSDNPCSCSQSHCCSRYLCMGAMSLFLPCLLCYPPAKGCLKLCRRCYDWIHRPGCRCKNSNTVYCKLESCPSRGQGKPS
B7: Protein sprouty homolog 1 (Homo sapiens), O43609 (parent)
chain: B6 chain
partner: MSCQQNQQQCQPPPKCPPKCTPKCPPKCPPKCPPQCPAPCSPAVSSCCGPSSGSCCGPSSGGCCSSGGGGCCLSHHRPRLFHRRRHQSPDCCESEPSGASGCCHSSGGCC

Variants of: B1
Details: with gipc2_human GIPC2, Q8TF65

| Variant | effect of a mutation on the interaction |
| --- | --- |
| M433V | with no effect |

Variants of: B2
Details: with mkrn3_human MKRN3, Q13064

| Variant | effect of a mutation on the interaction |
| --- | --- |
| K127R | with no effect |
| E417K | with no effect |

Variants of: B3
Details: with utp11_human UTP11, Q9Y3A2

| Variant | effect of a mutation on the interaction |
| --- | --- |
| I277T | disrupting interaction strength |

Variants of: B4
Details: with trim1_human MID2, Q9UJV3
Sequence of trim1_human MID2, Q9UJV3 (Q9UJV3 whole entry): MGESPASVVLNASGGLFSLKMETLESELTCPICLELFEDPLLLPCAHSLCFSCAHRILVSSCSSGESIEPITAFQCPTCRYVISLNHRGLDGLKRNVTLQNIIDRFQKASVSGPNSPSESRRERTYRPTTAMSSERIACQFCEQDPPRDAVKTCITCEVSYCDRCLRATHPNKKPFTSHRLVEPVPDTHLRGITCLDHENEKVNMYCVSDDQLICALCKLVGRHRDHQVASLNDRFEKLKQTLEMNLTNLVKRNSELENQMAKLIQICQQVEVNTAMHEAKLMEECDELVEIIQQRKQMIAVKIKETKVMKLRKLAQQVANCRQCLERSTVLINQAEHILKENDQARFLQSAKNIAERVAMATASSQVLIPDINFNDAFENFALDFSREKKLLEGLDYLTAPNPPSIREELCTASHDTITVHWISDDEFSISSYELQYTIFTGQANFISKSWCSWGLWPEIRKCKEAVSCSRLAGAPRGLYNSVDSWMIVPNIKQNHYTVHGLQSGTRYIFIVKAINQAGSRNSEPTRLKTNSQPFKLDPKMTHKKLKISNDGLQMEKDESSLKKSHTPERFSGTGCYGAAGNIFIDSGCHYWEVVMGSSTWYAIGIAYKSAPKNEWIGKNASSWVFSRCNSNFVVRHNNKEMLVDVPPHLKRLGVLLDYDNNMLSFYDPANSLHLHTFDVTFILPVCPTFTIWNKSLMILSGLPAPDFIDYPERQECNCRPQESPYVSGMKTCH

| Variant | effect of a mutation on the interaction |
| --- | --- |
| A144T | with no effect |
| R128H | with no effect |

Variants of: B4
Details: with tfp11_human TFIP11, Q9UBB9
Sequence of tfp11_human TFIP11, Q9UBB9 (Q9UBB9 whole entry): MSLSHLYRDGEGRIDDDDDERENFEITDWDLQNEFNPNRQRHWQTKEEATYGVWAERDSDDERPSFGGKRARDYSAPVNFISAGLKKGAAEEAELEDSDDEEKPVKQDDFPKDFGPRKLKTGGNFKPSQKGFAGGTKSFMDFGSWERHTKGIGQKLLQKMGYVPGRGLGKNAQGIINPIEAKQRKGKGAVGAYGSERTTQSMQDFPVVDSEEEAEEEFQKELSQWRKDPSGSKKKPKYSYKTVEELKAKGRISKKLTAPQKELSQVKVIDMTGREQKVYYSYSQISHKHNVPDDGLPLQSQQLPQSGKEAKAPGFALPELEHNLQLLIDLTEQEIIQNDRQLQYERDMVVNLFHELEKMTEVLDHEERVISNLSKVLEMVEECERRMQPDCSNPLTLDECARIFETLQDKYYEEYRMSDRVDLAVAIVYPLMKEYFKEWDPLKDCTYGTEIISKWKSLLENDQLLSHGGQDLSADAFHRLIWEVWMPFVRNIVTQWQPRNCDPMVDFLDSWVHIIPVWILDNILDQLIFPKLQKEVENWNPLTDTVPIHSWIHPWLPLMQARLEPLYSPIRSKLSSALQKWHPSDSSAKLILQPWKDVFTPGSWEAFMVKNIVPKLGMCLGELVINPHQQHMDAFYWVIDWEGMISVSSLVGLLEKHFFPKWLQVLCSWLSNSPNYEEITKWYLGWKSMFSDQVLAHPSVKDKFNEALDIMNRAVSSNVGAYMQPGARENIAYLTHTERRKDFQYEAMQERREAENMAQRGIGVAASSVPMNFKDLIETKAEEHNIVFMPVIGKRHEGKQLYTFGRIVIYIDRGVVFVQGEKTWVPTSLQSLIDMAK

| Variant | effect of a mutation on the interaction |
| --- | --- |
| A144T | with no effect |
| R128H | with no effect |

Variants of: B5
Details: with mp2k5_human MAP2K5, Q13163

| Variant | effect of a mutation on the interaction |
| --- | --- |
| S198P | with no effect |

Variants of: B6
Details: with nt2na_human NOTCH2NLA

| Variant | effect of a mutation on the interaction |
| --- | --- |
| R24H | with no effect |
| R296K | with no effect |
| A37T | with no effect |

Variants of: B6
Details: with otx1_human OTX1, P32242
Sequence of otx1_human OTX1, P32242 (P32242 whole entry): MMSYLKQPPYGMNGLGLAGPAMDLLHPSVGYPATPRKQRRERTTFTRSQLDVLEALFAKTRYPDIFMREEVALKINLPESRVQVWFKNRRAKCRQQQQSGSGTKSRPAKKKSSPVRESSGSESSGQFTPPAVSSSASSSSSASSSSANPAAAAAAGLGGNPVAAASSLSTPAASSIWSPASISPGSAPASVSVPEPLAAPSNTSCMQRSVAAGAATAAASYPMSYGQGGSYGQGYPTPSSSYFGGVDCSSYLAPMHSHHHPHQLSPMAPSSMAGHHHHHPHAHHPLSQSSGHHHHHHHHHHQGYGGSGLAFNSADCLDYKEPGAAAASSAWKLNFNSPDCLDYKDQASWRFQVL

| Variant | effect of a mutation on the interaction |
| --- | --- |
| R24H | with no effect |
| R296K | with no effect |
| A37T | with no effect |

Variants of: B6
Details: with meox2_human MEOX2, P50222
Sequence of meox2_human MEOX2, P50222 (P50222 whole entry): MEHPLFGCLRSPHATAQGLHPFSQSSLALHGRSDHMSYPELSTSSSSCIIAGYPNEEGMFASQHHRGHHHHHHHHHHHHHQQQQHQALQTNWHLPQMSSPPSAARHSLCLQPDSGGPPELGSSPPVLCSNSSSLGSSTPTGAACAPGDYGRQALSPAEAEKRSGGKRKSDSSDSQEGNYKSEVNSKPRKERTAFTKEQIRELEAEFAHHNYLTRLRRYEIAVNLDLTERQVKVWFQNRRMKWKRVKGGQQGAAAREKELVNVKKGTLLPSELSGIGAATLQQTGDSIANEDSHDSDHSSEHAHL

| Variant | effect of a mutation on the interaction |
| --- | --- |
| R24H | with no effect |
| R296K | with no effect |
| A37T | with no effect |

Variants of: B6
Details: with kr101_human KRTAP10-1, P60331
Sequence of kr101_human KRTAP10-1, P60331 (P60331 whole entry): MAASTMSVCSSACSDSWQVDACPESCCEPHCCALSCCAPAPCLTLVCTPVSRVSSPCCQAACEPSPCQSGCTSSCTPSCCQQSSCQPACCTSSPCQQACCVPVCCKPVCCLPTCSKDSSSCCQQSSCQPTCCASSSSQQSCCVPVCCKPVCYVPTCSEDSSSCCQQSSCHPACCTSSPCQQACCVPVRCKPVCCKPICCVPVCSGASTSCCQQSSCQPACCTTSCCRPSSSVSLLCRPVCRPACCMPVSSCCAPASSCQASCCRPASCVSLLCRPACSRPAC

| Variant | effect of a mutation on the interaction |
| --- | --- |
| R24H | with no effect |
| R296K | with no effect |
| A37T | with no effect |

Variants of: B7
Details: with lce2d_human LCE2D

| Variant | effect of a mutation on the interaction |
| --- | --- |
| R296K | with no effect |
